Consider 27 sequences from the supplement of paper PMC9170038.

This series has as its system MS2 coat protein. Description: apparent KD of MS2 coat protein; designed switch direction (-1 OFF switch, 1 ON switch): 1; higher = weaker reporter binding. Summed up:
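The reported apparent KD is a per-design median over clusters, from curve fits of normalised cluster fluorescence. Protein titrations used SNAP-549-labelled MS2 coat protein, doubled from 0.7 or 1.5 nM to 3 µM, in Tris-HCl pH 7.5 buffer with KCl, MgCl2, BSA, DTT, tRNA and Tween-20, with no input, 200 uM small-molecule ligand, or an oligonucleotide input. The RNA switches were transcribed on Illumina chips by stalled E. coli RNA polymerase.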

Where [1] appears, read: input ligand: microRNA oligo, concentration not stated.
The mark [2] stands for this setting: Eterna round: R95, input ligand: FMN 200 uM.
[3] abbreviates: Eterna round: R95, input ligand: microRNA oligo, concentration not stated.
The mark [4] stands for this setting: Eterna round: R95, input ligand: none.

On to “AGGCUCAGACGAGGAUAUAUGUGGUCACAUGAGGAUCACCCAUGUCUCGAGCUUCGGCUCGAGGCAUAGAAGGCGUCUGAGCCA [SSNG2/5-A1] (Eterna round: R96, puzzle: Same State NG 2)”, for which the “apparent KD of MS2 coat protein” value is 662 nM (input ligand: FMN 200 uM), 16.4 nM under setting [1] and 184 nM (input ligand: none).
On the same counts, the results for “AGGCUCAGACUAGGAUAUGAUCAUGGCGCUUCGGCGCAUACAUGAGGAUCACCCAUGUAAAGUGAUCAGAAGGAGUCUGAGCCA [SSNG2/7-C1] (Eterna round: R96, puzzle: Same State NG 2)” are 9.82 nM, 9.08 nM and 13.6 nM.
Regarding “AGGGCCGCGGCACAGGAUAUGCACAGGUUCACAUGAGGAUCACCCAUGUGCUCUAGAUAACUUAAGCAGAAGGGUGUCAUGGUAA [Biarrace] (puzzle: Same State 2)”, the “apparent KD of MS2 coat protein” value stood at 11.2 nM under setting [2], 12 nM under setting [3] and 14.1 nM under setting [4].
For “AGUAGUUUAACAUGAGGAUCACCCAUGUAUCUAUCUGUAACCUAGGAUAUGGAGGUUUUAUUUAACCAGAAGGAGGAUUGUUUA [JR_SSNG3_Sub044] (Eterna round: R96, puzzle: Same State NG 3)”, the “apparent KD of MS2 coat protein” value runs as follows: (input ligand: FMN 200 uM) 19.8 nM; under setting [1], 17.6 nM; (input ligand: none) 24.2 nM.
As to “AGUCCAGCAUGAGCUGGACAAAAGCAUGUACAUGAGGAUCACCCAUGUCAUGUACAAGCUUUUUGCUCGUCUUAAUA [Mat - hsa-mir-208a - Mod of JL - D35] (puzzle: Sensor for hsa-mir-208a)”, the “apparent KD of MS2 coat protein” value runs as follows: under setting [2], 513 nM; under setting [3], 15.9 nM; under setting [4], 534 nM.
In the same order, the values of “AGUCCAGCAUGAGCUGGACAAAAGCAUGUACAUGAGGAUCACCCAUGUUCAUGUACAAGCUUUUUGCUCGUCUUAAU [Mat - hsa-mir-208a - Mod of JL - 61] (puzzle: Sensor for hsa-mir-208a)” are 549 nM, 15.9 nM and 698 nM.
On the same counts, the results for “AGUCCAGCCUGAGCUGGACAAAAGCAUGUACAUGAGGAUCACCCAUGUCAUGUGCAAGCUUUUUGCUCGUCUUAAAA [Zipper 46 - 6] (puzzle: Sensor for hsa-mir-208a)” are 61 nM, 11.6 nM and 67.9 nM.
In the same order, the values of “AGUCCAGCCUGAGCUGGACAAAAGCAUGUACAUGAGGAUCACCCAUGUUCAUGUACAAGCUUUUUGCUCGUCAUAAA [Mat - hsa-mir-208a - Mod of JL - 51] (puzzle: Sensor for hsa-mir-208a)” are 402 nM, 14.9 nM and 474 nM.
In the case of “AGUCCAGCCUGAGCUGGACAAAAGCAUGUACAUGAGGAUCACCCAUGUUCAUGUACAAGCUUUUUGCUCGUCGUAAU [Mat - hsa-mir-208a - Mod of JL - 48] (puzzle: Sensor for hsa-mir-208a)”, the “apparent KD of MS2 coat protein” value by setting is: under setting [2], 501 nM; under setting [3], 16.7 nM; under setting [4], 611 nM.
In the same order, the values of “AGUCCAGCCUGAGCUGGACAAAAGCAUGUACAUGAGGAUCACCCAUGUUCAUGUACAAGCUUUUUGCUCGUCUUAAC [salish99_208a_r3_029] (puzzle: Sensor for hsa-mir-208a)” are 553 nM, 16.8 nM and 636 nM.
“AGUCCAGCCUGAGCUGGACAAAAGCAUGUACAUGAGGAUCACCCAUGUUCAUGUACAAGCUUUUUGCUCGUCUUUAA [salish99_208a_r3_096x] (Eterna round: R96, puzzle: Sensor for hsa-mir-208a)”: the “apparent KD of MS2 coat protein” value (input ligand: FMN 200 uM) turned out to be 559 nM, the “apparent KD of MS2 coat protein” value under setting [1] was 14.5 nM and the “apparent KD of MS2 coat protein” value (input ligand: none) worked out at 577 nM.
On to “AGUCCAGCCUGAGCUGGACAAAAGCAUGUACAUGAGGAUCACCCAUGUUCAUGUACAAGCUUUUUGCUCGUCUUUAA [salish99_208a_r3_096x] (puzzle: Sensor for hsa-mir-208a)”, for which the “apparent KD of MS2 coat protein” value under setting [2] is 658 nM, the “apparent KD of MS2 coat protein” value under setting [3] came to 14.5 nM and the “apparent KD of MS2 coat protein” value under setting [4] amounted to 985 nM.
For “AGUCCAGCCUGAGCUGGACAAAUGCAUGUACAUGAGGAUCACCCAUGUUCAUGUACAAGCAUUUUGCUCGUCUUAAA [Sensor for hsa-mir-208a (JL zipper 55 mod - 61 to A)] (Eterna round: R96, puzzle: Sensor for hsa-mir-208a)”, the “apparent KD of MS2 coat protein” value (input ligand: FMN 200 uM) is 330 nM, the “apparent KD of MS2 coat protein” value under setting [1] is 13.5 nM and the “apparent KD of MS2 coat protein” value (input ligand: none) came to 346 nM.
As for “AGUCCAGCCUGAGCUGGACGAAAGCAUGUACAUGAGGAUCACCCAUGUCAUGUACAAGCUUUUUGCUCGUCUUAAAA [Zipper 46 - 4] (puzzle: Sensor for hsa-mir-208a)”, the “apparent KD of MS2 coat protein” value under setting [2] was 482 nM, the “apparent KD of MS2 coat protein” value under setting [3] turned out to be 15 nM and the “apparent KD of MS2 coat protein” value under setting [4] was 532 nM.
Regarding “AGUCCAGCCUGAGCUGGACUGAAGCAUGUACAUGAGGAUCACCCAUGUUCAUGUACAGGCUUUUUGCUCGUCUUAUG [JL-shm-2.02 JL mod] (Eterna round: R96, puzzle: Sensor for hsa-mir-208a)”, the “apparent KD of MS2 coat protein” value runs as follows: (input ligand: FMN 200 uM) 619 nM; under setting [1], 14.6 nM; (input ligand: none) 676 nM.
With “AGUCCAGCCUGAGCUGGACUGAAGCAUGUACAUGAGGAUCACCCAUGUUCAUGUACAGGCUUUUUGCUCGUCUUAUG [JL-shm-2.02 JL mod] (puzzle: Sensor for hsa-mir-208a)”, the “apparent KD of MS2 coat protein” value reads like this: under setting [2], 842 nM; under setting [3], 18.2 nM; under setting [4], 879 nM.
On the same counts, the results for “AGUCCAGCCUGAGCUGGACUGAAGCAUGUACAUGAGGAUCACCCAUGUUCAUGUGCAGGCUUUUUGCUCGUCUUAUG [JL-shm-2.01 JL mod] (puzzle: Sensor for hsa-mir-208a)” are 84.7 nM, 13.5 nM and 108 nM.
In the same order, the values of “AGUCCAGCGAAAGCUGGACAAAAGCAUGUACAUGAGGAUCACCCAUGUUCAUGUACAAGCUUUUUGCUCGUCUUGAA [JL mod - D95 - 9] (puzzle: Sensor for hsa-mir-208a)” are 313 nM, 17.1 nM and 611 nM.
In the same order, the values of “AGUCCAGCGAAAGCUGGACAAAAGCGUGUACAUGAGGAUCACCCAUGUUCAUGUACAAGCUUUUUGCUCGUCUUAAA [JL mod - D95 - 6] (puzzle: Sensor for hsa-mir-208a)” are 30.7 nM, 17.3 nM and 96.2 nM.
Consider “AGUCGAGCCUGAGCUCGACAAAAGCAUGUACAUGAGGAUCACCCAUGUCAUGUACAAGCUUUUUGCUCGUCUUAAAA [Mat - hsa-mir-208a - Mod of JL - D19] (puzzle: Sensor for hsa-mir-208a)”, for which the “apparent KD of MS2 coat protein” value runs as follows: under setting [2], 238 nM; under setting [3], 13.5 nM; under setting [4], 264 nM.
For the sequence “AGUGGAGCCUGAGCUCCACAAAAGCAUGUACAUGAGGAUCACCCAUGUCAUGUACAAGCUUUUUGCUCGUCUUAAAA [Mat - hsa-mir-208a - Mod of JL - D18] (Eterna round: R96, puzzle: Sensor for hsa-mir-208a)”, the “apparent KD of MS2 coat protein” value was found to be 552 nM (input ligand: FMN 200 uM), 14 nM under setting [1] and 502 nM (input ligand: none).
“AGUGGAGCCUGAGCUCCACAAAAGCAUGUACAUGAGGAUCACCCAUGUCAUGUACAAGCUUUUUGCUCGUCUUAAAA [Mat - hsa-mir-208a - Mod of JL - D18] (puzzle: Sensor for hsa-mir-208a)”: the “apparent KD of MS2 coat protein” value worked out at 536 nM under setting [2], 18.8 nM under setting [3] and 423 nM under setting [4].
In the same order, the values of “AUAAAACAUGAGGAUCACCCAUGUCAACAAAGUCGAGGAUAUGGGCAAAGAAAAGAAUAACCAGAAGGCGAAUAAU [salish99_ss1_r3_055] (puzzle: Same State 1)” are 51.5 nM, 315 nM and 316 nM.
Regarding “AUAAAACAUGAGGAUCACCCAUGUCUCUAAAGUCGAGGAUAUGGGCAAAUAAUAUAAGAACCAGAAGGCGAAUAAU [SS1 Teenbexe 3] (puzzle: Same State 1)”, the “apparent KD of MS2 coat protein” value is, setting by setting: under setting [2], 58.1 nM; under setting [3], 51.2 nM; under setting [4], 530 nM.
Regarding “AUAACAAUGGCAGGAUAUGGGAUUGGAAGUGUUCCAGAAGGGCCAUAACGGCGAUGGACAUGAGGAUCACCCAUGUCUUAGCCU [MOD2 Powerstrip SSNG 1.4] (Eterna round: R96, puzzle: Same State NG 1)”, the “apparent KD of MS2 coat protein” value is, setting by setting: (input ligand: FMN 200 uM) 14.3 nM; under setting [1], 6.26 nM; (input ligand: none) 15 nM.
With “AUAAGUUCGAUGCUCGUCUCUCCGUACAAACAUGAGGAUCACCCAUGUGACUGGGCAAUAGCCCAAUCAGUAUGGCC [Beongetiqu] (puzzle: Sensor for hsa-mir-208a)”, the “apparent KD of MS2 coat protein” value runs as follows: under setting [2], 34.8 nM; under setting [3], 22.8 nM; under setting [4], 34.4 nM.
Turning to “AUAAGUUUGAUGCUCGUCUCUCCGUACAAACAUGAGGAUCACCCAUGUGGUCGGGAAGUAGCCCGGCCAGUAUGACC [Rigebelain] (puzzle: Sensor for hsa-mir-208a)”, the “apparent KD of MS2 coat protein” value by setting is: under setting [2], 32.7 nM; under setting [3], 24.4 nM; under setting [4], 35.2 nM.
